According to patent US20150232576A1 (published 2015):

B1: endothelial nitric oxide synthase (eNOS), purified, unphosphorylated (enzyme, bovine, UniProt P29473 1-1205, looked up)
chain: MGNLKSVGQEPGPPCGLGLGLGLGLCGKQGPASPAPEPSRAPAPATPHAPDHSPAPNSPTLTRPPEGPKFPRVKNWELGSITYDTLCAQSQQDGPCTPRCCLGSLVLPRKLQTRPSPGPPPAEQLLSQARDFINQYYSSIKRSGSQAHEERLQEVEAEVASTGTYHLRESELVFGAKQAWRNAPRCVGRIQWGKLQVFDARDCSSAQEMFTYICNHIKYATNRGNLRSAITVFPQRAPGRGDFRIWNSQLVRYAGYRQQDGSVRGDPANVEITELCIQHGWTPGNGRFDVLPLLLQAPDEAPELFVLPPELVLEVPLEHPTLEWFAALGLRWYALPAVSNMLLEIGGLEFSAAPFSGWYMSTEIGTRNLCDPHRYNILEDVAVCMDLDTRTTSSLWKDKAAVEINLAVLHSFQLAKVTIVDHHAATVSFMKHLDNEQKARGGCPADWAWIVPPISGSLTPVFHQEMVNYILSPAFRYQPDPWKGSATKGAGITRKKTFKEVANAVKISASLMGTLMAKRVKATILYASETGRAQSYAQQLGRLFRKAFDPRVLCMDEYDVVSLEHEALVLVVTSTFGNGDPPENGESFAAALMEMSGPYNSSPRPEQHKSYKIRFNSVSCSDPLVSSWRRKRKESSNTDSAGALGTLRFCVFGLGSRAYPHFCAFARAVDTRLEELGGERLLQLGQGDELCGQEEAFRGWAKAAFQASCETFCVGEEAKAAAQDIFSPKRSWKRQRYRLSTQAEGLQLLPGLIHVHRRKMFQATVLSVENLQSSKSTRATILVRLDTAGQEGLQYQPGDHIGICPPNRPGLVEALLSRVEDPPPPTESVAVEQLEKGSPGGPPPSWVRDPRLPPCTLRQALTFFLDITSPPSPRLLRLLSTLAEEPSEQQELETLSQDPRRYEEWKWFRCPTLLEVLEQFPSVALPAPLLLTQLPLLQPRYYSVSSAPNAHPGEVHLTVAVLAYRTQDGLGPLHYGVCSTWLSQLKTGDPVPCFIRGAPSFRLPPDPYVPCILVGPGTGIAPFRGFWQERLHDIESKGLQPAPMTLVFGCRCSQLDHLYRDEVQDAQERGVFGRVLTAFSREPDSPKTYVQDILRTELAAEVHRVLCLERGHMFVCGDVTMATSVLQTVQRILATEGDMELDEAGDVIGVLRDQQRYHEDIFGLTLRTQEVTSRIRTQSFSLQERHLRGAVPWAFDPPGPDTPGP
notes: Expressed and purified 'as known in the art (22-24)'; also called unphosphorylated eNOS; purified eNOS
B2: ERK phosphorylated eNOS (enzyme)
chain: B1 chain
modifications: phosphorylated in vitro by ERK2 at S602, T46 and S58 (bovine eNOS numbering); apparent stoichiometry 2-3 phosphates per monomer

Assays:
[1] = biological target: T1, ERK-2 (extracellular signal-regulated kinase 2) (UniProt P28482 1-360, limits assumed, biotinylated for immobilisation on streptavidin sensors); test: BLI, immobilised ERK-2, single component fit
T1 construct: Bought protein; also called ERK1/2
T1 sequence (P28482 whole entry): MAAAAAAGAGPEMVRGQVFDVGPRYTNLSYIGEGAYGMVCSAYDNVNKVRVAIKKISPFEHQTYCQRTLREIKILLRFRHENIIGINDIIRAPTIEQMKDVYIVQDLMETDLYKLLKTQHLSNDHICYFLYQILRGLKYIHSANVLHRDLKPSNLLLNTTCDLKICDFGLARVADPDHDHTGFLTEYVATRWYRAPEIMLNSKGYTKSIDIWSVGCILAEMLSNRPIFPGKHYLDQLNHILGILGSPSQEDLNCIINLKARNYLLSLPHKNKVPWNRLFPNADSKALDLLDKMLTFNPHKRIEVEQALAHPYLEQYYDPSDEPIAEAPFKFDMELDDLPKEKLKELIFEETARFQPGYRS
Procedure: NOSs were expressed and purified as known in the art (22-24). Heme and flavin content were estimated spectrophotometrically, and activity assayed by following NADPH consumption at 340 nm (23, 24). eNOS NO synthase activity and cytochrome c reduction were assayed as known in the art (25, 26), the concentration of CaM was reduced to 0.6 μM because of potential competition between CaM and p38. Phosphorylated His-p38 was expressed as known in the art (26) and was purified using Talon™ resin as directed by the manufacturer. ERK-2 was purchased from PROSPEC (NJ). Biolayer interferometry (27) measurements were made on a ForteBio (Menlo Park Calif.) Octet QK biosensor using streptavidin sensors. Assays were performed in 200 μL volumes at 25° C. p38 and ERK were biotinylated as known in the art (21). Biotinylated kinases were loaded onto sensors for 600 s. After establishing baseline response, kinases were exposed to analyte eNOS or nNOS at a range of concentrations. Baseline, association, and dissociation phases were all performed in NOS buffer (10 mM phosphate, pH 7.5, 100 mM NaCl, 10% glycerol, 0.005% surfactant P-20, 10 uM CaCl₂). Association and dissociation were monitored as nm shift. Nonspecific binding of analytes to sensors without ligand was negligible and so was not subtracted.
The concentration dependence was similar to that of the binding of eNOS to p38. […]

[2] = biological target: T2, calmodulin (CaM) (UniProt P0DP23 2-149); test: optical biosensing (BLI, SPR), immobilised CaM
[3] = biological target: T2, calmodulin (CaM); test: BLI, biotinylated CaM on streptavidin sensors, eNOS analyte, global single-state model
[4] = biological target: T2, calmodulin (CaM); test: SPR (Biacore X100, CAPture chip), immobilised CaM, single-cycle kinetics, sequential model
[5] = biological target: T2, calmodulin (CaM); test: BLI, immobilised CaM, single-state model

Binder | fold of apparent Kd against that measured for p38 [1] [fold] | Kd [2] [nM] | Kd [3] [nM] | koff [3] [s⁻¹] | kon [3] [M⁻¹ s⁻¹] | Kd [4] [nM] | fold higher koff than unphosphorylated eNOS [5] [fold]
B1 | ~2 | ~1 | 0.92 | 0.00011 | 120000 | 0.72 | –
B2 | – | ~1 | 2.7 | 0.00012 | 120000 | 0.65 | 3
